No end group written: not given here.
Target: T1, purified recombinant ISP1 (Mus musculus, UniProt Q924N9)
T1 construct: Myc (C); His6 (C); made in house; host or cells: Pichia pastoris SMD1168
T1 sequence (Q924N9 31-274 limits assumed): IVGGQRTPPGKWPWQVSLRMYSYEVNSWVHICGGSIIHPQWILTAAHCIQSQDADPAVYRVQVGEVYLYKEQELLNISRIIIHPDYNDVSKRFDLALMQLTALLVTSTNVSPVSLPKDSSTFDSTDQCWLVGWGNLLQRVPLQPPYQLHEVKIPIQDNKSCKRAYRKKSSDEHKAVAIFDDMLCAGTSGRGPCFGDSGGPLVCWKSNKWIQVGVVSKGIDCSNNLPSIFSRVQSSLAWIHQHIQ
Experiment: In vitro cleavage of synthetic peptides by ISP1 (HPLC, MALDI-TOF)
Format: biochemical
Conditions: for Cleavage of synthetic peptide by ISP1: 37°C, up to overnight, HPLC; for ISP1 cleavage site in synthetic peptide: MALDI-TOF / amino acid analysis / ES-MS
Description: Synthetic peptides (1 mg/ml) diluted in 25 mM Tris.Cl (pH 7.8) were incubated with 2.0 units of purified recombinant ISP1 (total volume of reaction mixture: 0.5 ml) at 37°C overnight. The reaction was terminated by the addition of 0.1% trifluoroacetic acid and the mixture was separated using HPLC with an acetonitrile gradient in 0.1% v/v trifluoroacetic acid. The positions of the hydrolysis products monitored by ultraviolet absorption (E215) were compared to the elution position of the intact peptide. The masses of the individual peaks (E215) were determined by MALDI-TOF mass spectroscopy and were used to deduce the predicted amino acid sequences, based on the parent peptide sequence (amino acids are abbreviated by their one-letter codes, e.g., A = alanine, R = arginine). Except where indicated, all chemical reagents were from VWR International (Mississauga, ON, Canada).
The rat PAR2 sequence representing the cleavage/activation domain (^30 GPNSKGR/ SLIGRLDT ^45P: tethered ligand sequence, underlined), the 27-mer synthetic sequence derived from the N-terminal residues […] of rat PAR2 (I^48 […] ^74) and a 17-mer synthetic peptide sequence derived from extracellular loop 2 of rat PAR2 (V^229 LPEEVLVGDMFSYFLS ^245) were selected for the proteolysis studies. […] The 17-mer ^229–245PAR2 sequence is the potential binding site of the activating peptide. […] These peptides at a concentration of 100 µM were incubated with implantation serine proteinase 1 for varying times up to overnight at 37°C. The incubation buffers were identical to the buffers used for the measurements of enzymatic activities using AMC-substituted peptide substrates. Reactions were terminated either by rapid freezing in liquid nitrogen or by the addition to the proteolysis sample of 2 volumes of a “stop solution” comprising 50% acetonitrile and 0.1% trifluoroacetic acid in water. Samples were either subjected immediately to HPLC analysis, with collection of the E215 peak fractions, or were stored at −80°C for further processing. The cleavage products in peaks of absorption resolved by HPLC were quantified (E215), collected and their identity was established by mass spectral MALDI analysis. Some of the peaks recovered from the HPLC columns, but not ascertained by mass spectral analysis (MALDI-TOF), were identified by total amino acid analysis. Analyses were done at the Southern Alberta Mass Spectrometry Facility at the University of Calgary, Faculty of Medicine (Calgary, Alberta, Canada).

Cleavage of synthetic peptide by ISP1 | Substance | ISP1 cleavage site in synthetic peptide
cleaved by ISP1 | RRFYIQ-NH2 | 
successfully cleaved | ITGKGAPVEPGFSVDEFSASVLTGKLT-NH2 [27 mer peptide] | between an alanine (P1 sub site) residue and a serine (P1′ sub site) residue
not cleaved | cleavage/activation sequence of PAR2: sequence representing the cleavage/activation site of rat PAR2 (30 GPNSKGR/ SLIGRLDT 45P) (GPNSKGRSLIGRLDTP; UniProt Q63645 30-45, looked up, fragment) | 

Substance | Cleavage of synthetic peptide by ISP1 | ISP1 cleavage site in synthetic peptide
VLPEEVLVGDMFSYFLS [17-mer synthetic peptide, derived from the extracellular loop 2 domain of rat PAR2] | successfully cleaved | between a tyrosine (P1 sub site) residue and a phenylalanine (P1′ sub site) residue; a phenylalanine (P1 sub site) and a leucine (P1′ sub site) residue; a leucine (P1 sub site) and a serine (P1′ sub site) residue

— publication PMC3223204, “Implantation Serine Proteinase 1 Exhibits Mixed Substrate Specificity that Silences Signaling via Proteinase-Activated Receptors” (PLoS ONE, 2011)
